# B1: VEGFA promoter 27-bp (-62 to -36) (dsDNA)
# DNA 1: GGCGGGGCGGAGCCATGCGCCCCCCCC
# DNA 2: GGGGGGGGCGCATGGCTCCGCCCCGCC
# How the values were obtained:
# SerRS delta V2-G14 = SerRS delta V2-G14 (Homo sapiens, UniProt P49591 1-514, del2-14); experiment: EMSA; binding abolished; EMSA: 20 mM Tris-HCl pH 8.0, 60 mM KCl, 5 mM MgCl2, 0.1 mg/ml BSA, 10 ng/ul poly(dG-dC), 1 mM DTT, 30 min, room temperature; SPR: 10 mM HEPES pH 7.4, 150 mM NaCl, 0.005% P-20; footprint: 20 mM HEPES pH 7.9, 120 mM KCl, 8 mM MgCl2, 0.2 mM EDTA, 0.5 mM DTT, 0.2 mg/ml BSA, 10 ug/ml poly(dG-dC), 5% glycerol, room temperature; conditions: protein: recombinant; chain copies: 2; label: 5' 32P
# Chain of SerRS delta V2-G14 (P49591 other isoform, or with tags, fused parts or gaps del2-14 | mutant): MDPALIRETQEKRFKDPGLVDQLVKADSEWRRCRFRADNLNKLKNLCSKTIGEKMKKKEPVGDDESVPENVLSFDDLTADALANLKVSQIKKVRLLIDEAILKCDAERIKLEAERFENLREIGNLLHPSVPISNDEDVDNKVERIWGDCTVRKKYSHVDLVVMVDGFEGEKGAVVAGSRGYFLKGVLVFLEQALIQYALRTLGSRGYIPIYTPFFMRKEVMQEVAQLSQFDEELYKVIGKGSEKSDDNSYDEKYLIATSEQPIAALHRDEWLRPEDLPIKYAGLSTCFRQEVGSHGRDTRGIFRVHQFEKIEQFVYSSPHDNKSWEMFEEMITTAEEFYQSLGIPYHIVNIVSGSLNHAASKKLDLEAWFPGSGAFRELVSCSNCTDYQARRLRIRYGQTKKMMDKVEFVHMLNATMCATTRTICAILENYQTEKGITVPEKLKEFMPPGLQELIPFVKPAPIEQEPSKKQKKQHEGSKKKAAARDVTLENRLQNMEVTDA
# SerRS delta T413-V420 = SerRS delta T413-V420 (Homo sapiens, UniProt P49591 1-514, del413-420); experiment: as above; conditions: protein: recombinant; chain copies: 2; label: 5' 32P
# Chain of SerRS delta T413-V420 (P49591 other isoform, or with tags, fused parts or gaps del413-420 | mutant): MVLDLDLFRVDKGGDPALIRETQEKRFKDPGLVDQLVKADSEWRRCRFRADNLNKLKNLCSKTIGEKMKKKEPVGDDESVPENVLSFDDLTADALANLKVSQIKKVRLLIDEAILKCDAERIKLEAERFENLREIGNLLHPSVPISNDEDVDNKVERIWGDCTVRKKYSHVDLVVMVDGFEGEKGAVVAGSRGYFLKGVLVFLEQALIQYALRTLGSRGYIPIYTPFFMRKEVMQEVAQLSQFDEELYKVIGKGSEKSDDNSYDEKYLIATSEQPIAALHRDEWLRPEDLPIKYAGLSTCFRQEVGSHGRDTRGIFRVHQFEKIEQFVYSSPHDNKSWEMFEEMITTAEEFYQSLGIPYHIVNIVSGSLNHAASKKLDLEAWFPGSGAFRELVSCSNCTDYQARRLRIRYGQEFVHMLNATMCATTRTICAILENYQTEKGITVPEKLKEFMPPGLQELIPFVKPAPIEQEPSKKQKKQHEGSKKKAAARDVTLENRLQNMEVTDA
binder,measurement,setting,value
B1,binding result,SerRS delta V2-G14,no binding
same,binding result,SerRS delta T413-V420,no binding

# — paper PMC4057782, “tRNA synthetase counteracts c-Myc to develop functional vasculature”
